Where a chain is given by its changes, count along the chain named. Numbers in names are those of the source.
T1: AMH-specific type II receptor, AMHR2 (UniProt Q16671 18-573, limits assumed)
T1 sequence (looked up): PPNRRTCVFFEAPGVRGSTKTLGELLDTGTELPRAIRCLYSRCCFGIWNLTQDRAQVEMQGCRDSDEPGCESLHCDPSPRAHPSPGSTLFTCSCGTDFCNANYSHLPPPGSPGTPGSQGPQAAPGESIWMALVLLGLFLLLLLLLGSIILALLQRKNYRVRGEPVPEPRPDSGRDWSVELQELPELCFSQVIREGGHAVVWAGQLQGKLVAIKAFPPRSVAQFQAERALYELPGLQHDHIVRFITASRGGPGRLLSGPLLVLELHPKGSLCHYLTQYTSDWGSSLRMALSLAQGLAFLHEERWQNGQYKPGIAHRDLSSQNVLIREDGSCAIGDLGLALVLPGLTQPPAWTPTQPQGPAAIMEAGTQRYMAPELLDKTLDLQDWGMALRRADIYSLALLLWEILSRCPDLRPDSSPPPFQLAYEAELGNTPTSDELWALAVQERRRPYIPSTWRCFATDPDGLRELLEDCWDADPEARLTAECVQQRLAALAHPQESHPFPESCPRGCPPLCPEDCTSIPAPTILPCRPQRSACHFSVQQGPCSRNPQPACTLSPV

B1: hAMH+SCUT+RSA (Wild type) AMH (ligand)
chain 1: HHHHHHPAVGTSGLIFREDLDWPPGSPQEPLCLVALGGDSNGSSSPLRVVGALSAYEQAFLGAVQRARWGPRDLATFGVCNTGDRQAALPSLRRLGAWLQDPGGQRLVVLHLEEVTWEPTPSLRFQEPPPGGAGPPELALLVLYPGPGPEVTVTRAGLPGAQSLCPSRDTRYLVLAVDRPAGAWRGSGLALTLQPRGEDSRLSTARLQALLFGDDHRCFTRMTPALLLLPRSEPAPLPAHGQLDTVPFPPPRPSAELEESPPSADPFLETLTRLVRALRVPPARASAPRLALDPDALAGFPQGLVNLSDPAALERLLDGEEPLLLLLRPTAATTGDPAPLHDPTSAPWATALARRVAAELQAAAAELRSLPGLPPATAPLLARLLALCPGGPGGLGDPLRALLLLKALQGLRVEWRGRDPRGPGISSRKKR
chain 2: SVSSSAGATAADGPCALRELSVDLRAERSVLIPETYQANNCQGVCGWPQSDRNPRYGNHVVLLLKMQARGAALARPPCCVPTAYAGKLLISLSEERISAHHVPNMVATECGCR
B2: hAMH mutant L536I (ligand)
chain 1: B1 chain 1
chain 2: B1 chain 2 with L89I
B3: hAMH+SCUT+RSA G533A mutant (ligand)
chain 1: B1 chain 1
chain 2: B1 chain 2 with G86A
B4: hAMH+SCUT+RSA L535M mutant (ligand)
chain 1: B1 chain 1
chain 2: B1 chain 2 with L88M
B5: hAMH+SCUT+RSA G533S mutant (ligand)
chain 1: B1 chain 1
chain 2: B1 chain 2 with G86S
B6: hAMH mutant S538A (ligand)
chain 1: B1 chain 1
chain 2: B1 chain 2 with S91A
B7: hAMH+SCUT+RSA G533H mutant (ligand)
chain 1: B1 chain 1
chain 2: B1 chain 2 with G86H
B8: hAMH+SCUT+RSA G533K mutant (ligand)
chain 1: B1 chain 1
chain 2: B1 chain 2 with G86K
B9: hAMH+SCUT+RSA double mutant G533A+L535M (ligand)
chain 1: B1 chain 1
chain 2: B1 chain 2 with G86A, L88M
B10: hAMH mutant L536M (ligand)
chain 1: B1 chain 1
chain 2: B1 chain 2 with L89M
B11: hAMH mutant A546M (ligand)
chain 1: B1 chain 1
chain 2: B1 chain 2 with A99M
B12: hAMH+SCUT+RSA H548K mutant (ligand)
chain 1: B1 chain 1
chain 2: B1 chain 2 with H101K

Each binder was assayed against T1, AMH-specific type II receptor, AMHR2 (assay: cell-based or functional assay).

Binder	AMH activity relative to wild type (%)	EC50 in COV434 BRE-Luc assay	Maximal response relative to wild-type (%)	Potency relative to ‘wild-type’
B1	100%	~6 ng/mL		
B2			~65%	~7 fold less potent
B3	250%	~2.8 ng/mL		~2 fold more potent
B4	100%	~6 ng/mL		
B5	350%	~1.8 ng/mL	~140%	~3 fold more potent
B6			~65%	~4 fold less potent
B7	100%	~6 ng/mL		
B8	500%	~1.2 ng/mL	~190%	~5 fold more potent
B9	100%	~6 ng/mL		
B10			~80%	~3 fold less potent
B11			~5%	
B12	100%	~6 ng/mL		
